The values below come from PMC7498065 (PLoS Biology, 2020).

What all share (details): both partners purified
Assay [1] addresses T1, Complement component C5 (Homo sapiens, UniProt P01031).
T1 construct: Complement component C5, human, beta chain of the processed serum protein; Complement component C5, human, alpha chain of the processed serum protein; In the FRET assays C5 carried an amine-reactive terbium chelate (dye to protein 4:1); in SPR it was amine-coupled to a CM5 chip; The C5 used for immunisation was bought from CompTech; also called human C5; C5-Tb
The assay is described as follows: SPR; Biacore 8K single-cycle kinetics; C5 amine-coupled to CM5 (minimal immobilisation, 100-160 RU; 50-85 RU for PGT121-K149); PGT121 knob fusion proteins as analytes, 1 μM to 1.37 nM in HBS-EP; 40 μL/min (100 μL/min for K149); dissociation 10,000 s; 1:1 model; mean of 3 experiments.

For assay [2], the target named is T1, Complement component C5. The assay is described as follows: FRET or BRET; steady state FRET; 1 nM terbium-labelled C5; titration of AlexaFluor 647-labelled PGT121 knob fusion protein in HBS-EP, with and without 1 μM unlabelled C5; 24 hours; apparent KD (KD app), geomean of 3 experiments.
Assay [3] concerns the target T2, human complement component C3 (Homo sapiens, UniProt P01024).
T2 construct: Complement component C3, human, beta chain of the processed serum protein; Complement component C3, human, alpha chain of the processed serum protein; source: bought: CompTech
Nature of the assay: SPR; Biacore single-cycle kinetics counter screen; C3 amine-coupled to CM5 (minimal immobilisation, 40-55 RU); PGT121 knob fusion proteins as analytes.

T1 sequence (P01031 whole entry, looked up): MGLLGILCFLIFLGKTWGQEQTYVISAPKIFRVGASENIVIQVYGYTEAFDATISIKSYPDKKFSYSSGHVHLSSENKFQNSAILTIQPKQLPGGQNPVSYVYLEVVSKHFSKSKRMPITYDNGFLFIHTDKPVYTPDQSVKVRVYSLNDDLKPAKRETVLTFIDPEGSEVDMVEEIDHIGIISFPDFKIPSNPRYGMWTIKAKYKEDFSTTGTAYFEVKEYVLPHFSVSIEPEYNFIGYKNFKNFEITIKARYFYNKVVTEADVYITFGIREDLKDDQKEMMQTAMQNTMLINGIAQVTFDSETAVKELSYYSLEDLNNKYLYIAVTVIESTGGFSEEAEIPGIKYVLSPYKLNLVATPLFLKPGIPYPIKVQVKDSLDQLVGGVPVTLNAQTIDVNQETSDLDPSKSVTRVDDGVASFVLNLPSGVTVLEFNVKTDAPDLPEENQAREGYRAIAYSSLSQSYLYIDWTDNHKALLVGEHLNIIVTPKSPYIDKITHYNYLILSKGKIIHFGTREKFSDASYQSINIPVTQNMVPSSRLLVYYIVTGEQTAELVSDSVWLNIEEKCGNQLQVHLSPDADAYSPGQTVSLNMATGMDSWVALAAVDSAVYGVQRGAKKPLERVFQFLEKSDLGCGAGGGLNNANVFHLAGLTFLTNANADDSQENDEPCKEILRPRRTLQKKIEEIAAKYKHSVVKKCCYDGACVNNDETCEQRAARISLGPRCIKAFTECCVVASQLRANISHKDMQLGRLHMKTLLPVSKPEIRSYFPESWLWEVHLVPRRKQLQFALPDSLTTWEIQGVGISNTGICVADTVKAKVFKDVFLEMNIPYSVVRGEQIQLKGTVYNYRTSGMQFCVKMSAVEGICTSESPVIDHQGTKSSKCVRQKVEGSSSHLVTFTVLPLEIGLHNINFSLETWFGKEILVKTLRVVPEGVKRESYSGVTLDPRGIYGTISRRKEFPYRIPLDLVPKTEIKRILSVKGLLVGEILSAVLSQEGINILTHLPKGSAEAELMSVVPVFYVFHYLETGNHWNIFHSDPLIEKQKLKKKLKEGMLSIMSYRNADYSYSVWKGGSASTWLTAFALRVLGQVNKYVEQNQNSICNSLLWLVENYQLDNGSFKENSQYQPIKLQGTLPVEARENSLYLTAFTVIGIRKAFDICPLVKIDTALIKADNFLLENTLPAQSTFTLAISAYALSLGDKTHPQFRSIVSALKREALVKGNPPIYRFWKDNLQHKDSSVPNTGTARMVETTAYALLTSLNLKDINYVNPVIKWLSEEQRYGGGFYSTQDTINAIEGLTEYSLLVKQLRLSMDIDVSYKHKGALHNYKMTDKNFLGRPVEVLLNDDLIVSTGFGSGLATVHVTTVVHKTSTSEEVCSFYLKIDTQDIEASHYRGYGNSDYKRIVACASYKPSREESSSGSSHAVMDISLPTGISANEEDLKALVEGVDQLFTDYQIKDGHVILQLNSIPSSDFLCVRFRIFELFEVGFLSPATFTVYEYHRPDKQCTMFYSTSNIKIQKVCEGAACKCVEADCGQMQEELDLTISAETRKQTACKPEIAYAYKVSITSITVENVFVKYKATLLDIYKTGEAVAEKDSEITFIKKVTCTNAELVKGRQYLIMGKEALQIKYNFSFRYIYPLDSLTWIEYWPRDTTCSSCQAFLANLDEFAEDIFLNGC
T2 sequence (P01024 whole entry, looked up): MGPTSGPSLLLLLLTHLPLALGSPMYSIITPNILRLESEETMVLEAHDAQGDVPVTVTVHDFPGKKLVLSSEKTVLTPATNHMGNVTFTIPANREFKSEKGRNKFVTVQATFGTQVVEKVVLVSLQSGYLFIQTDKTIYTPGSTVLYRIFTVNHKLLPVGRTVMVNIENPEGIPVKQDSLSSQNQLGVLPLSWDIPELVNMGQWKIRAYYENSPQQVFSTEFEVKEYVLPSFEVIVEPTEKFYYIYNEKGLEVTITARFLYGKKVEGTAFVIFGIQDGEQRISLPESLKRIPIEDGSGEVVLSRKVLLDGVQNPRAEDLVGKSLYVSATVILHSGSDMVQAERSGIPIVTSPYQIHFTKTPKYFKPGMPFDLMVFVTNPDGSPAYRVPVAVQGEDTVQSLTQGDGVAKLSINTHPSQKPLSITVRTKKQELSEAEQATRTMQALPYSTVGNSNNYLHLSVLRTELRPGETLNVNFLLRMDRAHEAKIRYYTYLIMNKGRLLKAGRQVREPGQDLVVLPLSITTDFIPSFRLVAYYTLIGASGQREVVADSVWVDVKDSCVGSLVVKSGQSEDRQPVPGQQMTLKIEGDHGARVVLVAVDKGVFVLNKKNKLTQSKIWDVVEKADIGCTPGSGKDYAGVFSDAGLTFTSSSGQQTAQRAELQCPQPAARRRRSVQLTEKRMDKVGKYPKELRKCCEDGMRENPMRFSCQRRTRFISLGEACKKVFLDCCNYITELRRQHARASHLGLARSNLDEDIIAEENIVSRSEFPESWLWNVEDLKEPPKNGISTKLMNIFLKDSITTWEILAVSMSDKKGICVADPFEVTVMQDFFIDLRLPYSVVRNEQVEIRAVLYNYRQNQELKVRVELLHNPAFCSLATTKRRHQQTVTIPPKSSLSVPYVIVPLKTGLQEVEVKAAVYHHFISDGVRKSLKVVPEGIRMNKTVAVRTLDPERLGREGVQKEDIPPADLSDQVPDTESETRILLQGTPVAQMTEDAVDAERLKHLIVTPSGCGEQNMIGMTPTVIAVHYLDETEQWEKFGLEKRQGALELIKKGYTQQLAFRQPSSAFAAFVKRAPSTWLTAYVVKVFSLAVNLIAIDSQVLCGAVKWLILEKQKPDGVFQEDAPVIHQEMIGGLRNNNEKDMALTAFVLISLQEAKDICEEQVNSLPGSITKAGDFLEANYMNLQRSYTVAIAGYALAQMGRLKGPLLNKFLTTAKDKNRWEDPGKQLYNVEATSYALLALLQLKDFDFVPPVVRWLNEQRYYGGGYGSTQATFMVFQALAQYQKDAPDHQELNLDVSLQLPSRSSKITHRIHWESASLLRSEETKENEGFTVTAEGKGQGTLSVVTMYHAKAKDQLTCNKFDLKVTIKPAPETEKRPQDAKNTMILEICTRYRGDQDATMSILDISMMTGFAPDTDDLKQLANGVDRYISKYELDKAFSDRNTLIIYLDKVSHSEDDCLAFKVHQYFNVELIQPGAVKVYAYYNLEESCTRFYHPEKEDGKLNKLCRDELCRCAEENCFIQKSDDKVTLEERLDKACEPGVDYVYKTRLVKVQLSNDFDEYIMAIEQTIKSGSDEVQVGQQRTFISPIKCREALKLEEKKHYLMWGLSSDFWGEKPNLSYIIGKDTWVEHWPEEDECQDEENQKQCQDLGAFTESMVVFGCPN

B1: PGT121-K136 fusion protein (Fab)
VH: QMQLQESGPGLVKPSETLSLTCSVSGASISDSYWSWIRRSPGKGLEWIGYVHKSGDTNYSPSLKSRVNLSLDTSKNQVSLSLVAATAADSGKYYCARTLHGRRIYGSENLYFQGTCPDNYREVDGCDPYDCCLTTWCTNSYCTRYIENLYFQGSEWFTYFYMDVWGNGTQVTVSS
VL: QSVLTQPPDISVAPGETARISCGEKSLGSRAVQWYQHRAGQAPSLIIYNNQDRPSGIPERFSGSPDSPFGTTATLTITSVEAGDEADYYCHIWDSRVPTKWVFGGGTTLTVL
notes: light chain of the human Fab PGT121, as the light chain of m4; Purified on a nickel column, so a His tag is surmised; also called PGT121 Fab-knob domain fusion protein (K136); source: Expi293F, transient co-transfection of heavy and light chain, purified from supernatant (Hi-Trap Nickel excel)
As to B1, the off-rate (koff) with Complement component C5 [1] is < 1e-05 s⁻¹. In the assay with Complement component C5 [2], the Kd was 0.04 µM. Besides, the binding result in assay [3] was “no binding (tested: 1 μM)”.

B2: PGT121-K149 fusion protein (Fab)
VH: QMQLQESGPGLVKPSETLSLTCSVSGASISDSYWSWIRRSPGKGLEWIGYVHKSGDTNYSPSLKSRVNLSLDTSKNQVSLSLVAATAADSGKYYCARTLHGRRIYGSENLYFQGSCPDGFSYRSWDDFCCPMVGRCLAPRNGSENLYFQGSEWFTYFYMDVWGNGTQVTVSS
VL: QSVLTQPPDISVAPGETARISCGEKSLGSRAVQWYQHRAGQAPSLIIYNNQDRPSGIPERFSGSPDSPFGTTATLTITSVEAGDEADYYCHIWDSRVPTKWVFGGGTTLTVL
notes: light chain of the human Fab PGT121, as the light chain of m4; Purified on a nickel column, so a His tag is surmised; also called K149-PGT121 construct; source: Expi293F, transient co-transfection of heavy and light chain, purified from supernatant (Hi-Trap Nickel excel)
Consider B2, for which the Kd in the assay with Complement component C5 [2] was found to be 0.066 µM. Besides, the binding result in assay [3] is reported as “no binding (tested: 1 μM)”.
